{
  "source": "patent US20070154905A1",
  "about": "(YEDA RESEARCH AND DEVELOPMENT, published 2007)",
  "binders": {"B1": {"name": "MORT-1 protein (full-length) (other)", "chain": "VNQAPECRFGGGILGPLGKRRDLARASEPRTEGARRAGPQPRPLADPAMDPFLVLLHSVSSSLSSSELTELKFLCLGRVVKRKLERVQSGLDLFSMLLEQNDLEPGHTELLRELLASLRRHDLLRRVDDFEAGAAAGAAPGEEDLCAAFNVICDNVGKDWRRLARQLKVSDTKIDSIEDRYPRNLTERVRESLRIWKNTEKENATVAHLVGALRSCQMNLVADLVQEVQQARDLQNRSGAMSPMSWNSDASTSEAS", "notes": "Full-length construct; also called HF1; FADD"}, "B2": {"name": "MACHα1 mutant in which the catalytic cysteine Cys360 is replaced by Ser (enzyme)", "chain": "MDFSRNLYDIGEQLDSEDLASLKFLSLDYIPQRKQEPIKDALMLFQRLQEKRMLEESNLSFLKELLFRINRLDLLITYLNTRKEEMERELQTPGRAQISAYRVMLYQISEEVSRSELRSFKFLLQEEISKCKLDDDMNLLDIFIEMEKRVILGEGKLDILKRVCAQINKSLLKIINDYEEFSKERSSSLEGSPDEFSNGEELCGVMTISDSPREQDSESQTLDKVYQMKSKPRGYCLIINNHNFAKAREKVPKLHSIRDRNGTHLDAGALTTTFEELHFEIKPHDDCTVEQIYEILKIYQLMDHSNMDCFICCILSHGDKGIIYGTDGQEAPIYELTSQFTGLKCPSLAGKPKVFFIQASQGDNYQKGIPVETDSEEQPYLEMDLSSPQTRYIPDEADFLLGMATVNNCVSYRNPAEGTWYIQSLCQSLRERCPRGDDILTILTEVNYEVSNKDDKKNMGKQMPQPTFTLRKKLVFPSD", "notes": "Gal4 fusion in two-hybrid tests; also called MACHα1 (C360S); MACHα (C360S)"}, "B3": {"name": "intracellular domain of human p55 TNF receptor (residues 206-426) (receptor, UniProt P19438 235-455, looked up)", "chain": "RYQRWKSKLYSIVCGKSTPEKEGELEGTTTKPLAPNPSFSPTPGFTPTLGFSPVPSSTFTSSSTYTPGDCPNFAAPRREVAPPYQGADPILATALASDPIPNPLQKWEDSAHKPQSLDTDDPATLYAVVENVPPLRWKEFVRRLGLSDHEIDRLELQNGRCLREAQYSMLATWRRRTPRREATLELLGRVLRDMDLLGCLEDIEEALCGPAALPPAPSLLR", "notes": "range 206-426; Gal4 fusion in two-hybrid tests; also called p55-IC; p55 IC"}, "B4": {"name": "MACHβ1 (ORF-B of MACH) (other)", "chain": "MDFSRNLYDIGEQLDSEDLASLKFLSLDYIPQRKQEPIKDALMLFQRLQEKRMLEESNLSFLKELLFRINRLDLLITYLNTRKEEMERELQTPGRAQISAYRVMLYQISEEVSRSELRSFKFLLQEEISKCKLDDDMNLLDIFIEMEKRVILGEGKLDILKRVCAQINKSLLKIINDYEEFSKERSSSLEGSPDEFSNDFGQSLPNEKQTSGILSDHQQSQFCKSTGESAQTSQH", "notes": "Gal4 fusion in two-hybrid tests; also called MACH B; MACH ORF-B"}},
  "key": {"[1]": {"target": "T1, mouse Fas-IC with replacement mutation I225A (mouse, UniProt P25446 187-327)", "T1 construct": "domain: intracellular domain", "T1 sequence (looked up)": "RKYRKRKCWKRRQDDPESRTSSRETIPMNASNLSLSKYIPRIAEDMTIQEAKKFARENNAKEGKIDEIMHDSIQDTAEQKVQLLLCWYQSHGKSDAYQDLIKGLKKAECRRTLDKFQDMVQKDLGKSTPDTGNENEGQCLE", "test": "yeast two-hybrid, β-galactosidase test (FIG. 1)"}, "[2]": {"target": "T2, mouse Fas-IC with replacement mutation I225N (mouse, UniProt P25446 187-327)", "T2 construct": "domain: intracellular domain; The text calls the change 'Ile to Leu' but labels it I225N; also called lpr^eg mutation", "T2 sequence (looked up)": "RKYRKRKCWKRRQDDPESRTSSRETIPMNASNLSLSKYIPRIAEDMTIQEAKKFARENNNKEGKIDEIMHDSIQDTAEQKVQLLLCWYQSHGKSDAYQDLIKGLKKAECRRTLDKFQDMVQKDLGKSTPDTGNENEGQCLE", "test": "yeast two-hybrid, β-galactosidase test (FIG. 1)"}, "[3]": {"target": "T3, MORT-1 fragment, amino acids 130-245 (C-terminal part with the death domain homology region) (human, UniProt Q13158 82-197)", "T3 construct": "Gal4 fusion in two-hybrid tests; expressed untagged in HeLa cells for the cytotoxicity test; also called MORT-1 DD; MORT-1 dd", "T3 sequence": "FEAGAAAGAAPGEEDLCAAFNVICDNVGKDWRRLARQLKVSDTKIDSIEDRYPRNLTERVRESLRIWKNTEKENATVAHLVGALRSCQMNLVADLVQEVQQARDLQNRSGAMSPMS", "test": "yeast two-hybrid, β-galactosidase test (FIG. 1)"}, "[4]": {"target": "B3", "test": "yeast two-hybrid, β-galactosidase test (FIG. 1)"}, "[5]": {"target": "T4, 'empty' Gal4 DNA-binding-domain vector pGBT9 (UniProt P04386 1-147)", "T4 construct": "Negative control", "T4 sequence (P04386 1-147 limits assumed)": "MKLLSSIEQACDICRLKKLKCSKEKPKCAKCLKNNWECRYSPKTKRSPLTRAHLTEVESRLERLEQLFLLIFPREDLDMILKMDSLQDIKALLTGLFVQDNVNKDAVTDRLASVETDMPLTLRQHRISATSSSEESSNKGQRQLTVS", "test": "yeast two-hybrid, β-galactosidase test (FIG. 1); empty pGBT9 is named as a negative control in paragraph 206"}, "[6]": {"target": "the molecule itself", "test": "yeast two-hybrid, β-galactosidase filter assay", "procedure": "(§1) The yeast two-hybrid test was further applied to evaluate the specificity of binding of MACH to MORT-1, in particular, to define the region in MORT-1 to which MACH binds, as well as to determine which of the MACH ORFs interacts with MORT-1, the procedures being as set forth herein above in Examples 1 and 2. Briefly, various MORT-1 and MACH constructs were prepared for testing the interaction of the proteins encoded by the Gal4 DNA-binding domain and activation domain constructs within transfected SFY526 yeast cells as assessed by the β-galactosidase expression filter assay. The DNA-binding domain constructs were prepared in pGBT9 vectors and the activation domain constructs were prepared in pGAD-GM vectors. For the activation domain constructs, the full-length MACH cDNA was used (MACH), as was a construct encoding only the ORF-B (MACH B) region. Control activation domain constructs were those containing the full-length MORT-1 coding sequence (MORT 1, positive control) and those having no inserts, i.e., “empty” vectors (pGAD-GM). […] Control DNA-binding domain constructs, which were constructed to determine also the specificity of the MACH binding, included constructs encoding lamin (Lamin), residues 287-461 of the intracellular domain of the human p75 TNF-R (human p75 IC), cyclic D (cycD), SNF1, residues 206-426 of the intracellular domain of the human p55 TNF-R (human p55 IC), the ‘death domain’ region of the intracellular domain of the human Fas-R (human Fas DD), residues 216-277 of the intracellular domain of the human CD40 (human CD40 IC), vectors without insert or “empty” pGBT9 vectors (pGBT9, negative control), and a construct encoding the ORF-B region of MACH (MACH B). In the assay, the development of color was determined, where the greater the color development, the greater the interaction between the constructs encoded by the DNA-binding domain and activation domain; Color development was depicted by symbols, where “+++” and “+” indicate the development of a strong color within 30 and 90 min. of the assay, respectively, and “−−−” indicates the lack of development of color within 24 hrs. of the assay. In cases where interactions were not tested, no symbol was indicated."}, "MACHβ1 (ORF-B of MACH)": {"target": "B4", "test": "yeast two-hybrid, β-galactosidase filter assay", "procedure": "as §1"}, "[7]": {"target": "the molecule itself", "test": "yeast two-hybrid, β-galactosidase test (FIG. 1)"}, "yeast two-hybrid": {"target": "the molecule itself", "test": "yeast two-hybrid", "procedure": "(§2) In FIG. 5, there is shown the results of the interaction of MORT-1 and MACH within transfected yeast cells. Briefly, MORT-1 and MACHβ1 and their deletion constructs, as well as MACHα1, a MACHα1 mutant in which the catalytic cysteine Cys₃₆₀ is replaced by Ser (MACHα1 (C360S)) and the intracellular domain of human FAS-R (Fas-IC), were expressed within transfected SFY526 yeast in Gal4 DNA binding domain and activation domain constructs (pGBT9 and pGAD-GH). Their interaction was assessed by a β-galactosidase expression filter assay as described in Boldin et al (1995b). The results are presented in terms of the time required for the development of strong color. […] None of the inserts examined interacted with a number of tested negative controls, including the intracellular domains of human p55 TNF receptor, p75 TNF receptor and CD40, and lamin, cyclin D and ‘empty’ Gal4 vectors. MACHβ1 was cloned by two hybrid screening of a Gal4 AD-tagged human B cell library (Durfee et al, 1993) for proteins that bind to MORT-1, using the HF7c Yeast reporter strain. Except where otherwise indicated, all experimental procedures for the findings presented are as described above (see also Boldin et al, 1995). […] MACHβ1 also self-associated in the transfected yeast. […] Expression of MACHβ1 molecules in mammalian cells yielded a 34 kDa protein that bound to MORT-1 molecules co-expressed with it. It was also able to bind to a GST-MORT-1 fusion protein in vitro."}, "MACHα1 [8]": {"target": "T5, MACHα1 (human, UniProt Q14790 1-479)", "T5 construct": "Gal4 fusion in two-hybrid tests; also called wild-type MACHα1", "test": "yeast two-hybrid, β-gal filter assay (FIG. 5)"}, "[9]": {"target": "B2", "test": "yeast two-hybrid, β-gal filter assay (FIG. 5)"}, "[10]": {"target": "B1", "test": "yeast two-hybrid, β-galactosidase filter assay", "procedure": "as §1"}, "[11]": {"target": "B3", "test": "yeast two-hybrid, β-gal filter assay (FIG. 5)"}, "MACHα1 [12]": {"target": "T5, MACHα1", "test": "yeast two-hybrid", "procedure": "as §2"}, "[13]": {"target": "B2", "test": "yeast two-hybrid", "procedure": "as §2"}},
  "data": [
    {"binder": "B1", "values": [
      {"measurement": "binding result", "setting": "[1]", "value": "no binding"},
      {"measurement": "binding result", "setting": "[2]", "value": "no binding"},
      {"measurement": "binding result", "setting": "[3]", "value": "no binding"},
      {"measurement": "binding result", "setting": "[4]", "value": "no binding"},
      {"measurement": "binding result", "setting": "[5]", "value": "no binding"},
      {"measurement": "time to development of strong color (beta-galactosidase filter assay, yeast two-hybrid)", "setting": "[6]", "value": "≤ 30", "unit": "min"},
      {"measurement": "time to development of strong color (beta-galactosidase filter assay, yeast two-hybrid)", "setting": "MACHβ1 (ORF-B of MACH)", "value": "30 to 90", "unit": "min"}
    ]},
    {"binder": "MORT-1 fragment, amino acids 1-117 (N-terminal part) (other, Gal4 fusion in two-hybrid tests; also called MORT-1 head; MORT 'head') VNQAPECRFGGGILGPLGKRRDLARASEPRTEGARRAGPQPRPLADPAMDPFLVLLHSVSSSLSSSELTELKFLCLGRVVKRKLERVQSGLDLFSMLLEQNDLEPGHTELLRELLAS", "values": [
      {"measurement": "binding result", "setting": "[7]", "value": "no binding"}
    ]},
    {"binder": "B2", "values": [
      {"measurement": "binding result", "setting": "yeast two-hybrid", "value": "binds"}
    ]},
    {"binder": "B3", "values": [
      {"measurement": "binding result", "setting": "MACHα1 [8]", "value": "no binding"},
      {"measurement": "binding result", "setting": "[9]", "value": "no binding"}
    ]},
    {"binder": "MACH (construct with the full-length MACH cDNA) (other, also called MORT-2) MDFSRNLYDIGEQLDSEDLASLKFLSLDYIPQRKQEPIKDALMLFQRLQEKRMLEESNLSFLKELLFRINRLDLLITYLNTRKEEMERELQTPGRAQISAYRVMLYQISEEVSRSELRSFKFLLQEEISKCKLDDDMNLLDIFIEMEKRVILGEGKLDILKRVCAQINKSLLKIINDYEEFSKERSSSLEGSPDEFSNDFGQSLPNEKQTSGILSDHQQSQFCKSTGESAQTSQH", "values": [
      {"measurement": "time to development of strong color (beta-galactosidase filter assay, yeast two-hybrid)", "setting": "[10]", "value": "≤ 30", "unit": "min"}
    ]},
    {"binder": "B4", "values": [
      {"measurement": "binding result", "setting": "[11]", "value": "no binding"},
      {"measurement": "time to development of strong color (beta-galactosidase filter assay, yeast two-hybrid)", "setting": "[6]", "value": "30 to 90", "unit": "min"},
      {"measurement": "time to development of strong color (beta-galactosidase filter assay, yeast two-hybrid)", "setting": "[10]", "value": "≤ 30", "unit": "min"},
      {"measurement": "binding result", "setting": "MACHα1 [12]", "value": "binds"},
      {"measurement": "binding result", "setting": "[13]", "value": "binds"}
    ]}
  ]
}
